Consider two molecules from article doi:10.1101/302299.

Series [1] deals with T1, AtERF96 WT (Arabidopsis thaliana, UniProt Q9LSX0 1-131). Description: X-ray crystallography.
The target of series [2] is T1, AtERF96 WT. As to the kind of experiment: EMSA.

T1 sequence (Q9LSX0 whole entry): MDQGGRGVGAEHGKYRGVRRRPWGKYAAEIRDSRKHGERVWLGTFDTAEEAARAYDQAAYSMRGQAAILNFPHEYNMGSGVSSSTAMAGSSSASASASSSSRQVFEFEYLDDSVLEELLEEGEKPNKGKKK

B1: GCC11 (crystal) (dsDNA)
DNA 1: TAGCCGCCAGC
DNA 2: GCTGGCGGCTA
B1: the binding result with AtERF96 WT [1] is reported as “binds”.

B2: GCC11 probe (dsDNA)
DNA 1: TAGCCGCCAGC
DNA 2: GCTGGCGGCTA
For B2, in the series with AtERF96 WT [2], the binding result is “binds”.
